This is an account of results in PMC3156243, “Properties and Crystal Structure of Methylenetetrahydrofolate Reductase from Thermus thermophilus HB8” (PLoS ONE, 2011).

Assay in all cases: purified protein
Substrate in series [1]: Nc1nc2c(c(=O)[nH]1)N1CN(c3ccc(C(=O)N[C@@H](CCC(=O)O)C(=O)O)cc3)C[C@H]1CN2
As to conditions: FAD; 50.0 °C.

Substrate in series [2]: NC(=O)C1=CN([C@@H]2O[C@H](COP(=O)(O)OP(=O)(O)OC[C@H]3O[C@@H](n4cnc5c(N)ncnc54)[C@H](O)[C@@H]3O)[C@@H](O)[C@H]2O)C=CC1
As to conditions: FAD; 25.0 °C.

Substrate in series [3]: Cc1cc2nc3c(=O)[nH]c(=O)nc-3n(C[C@H](O)[C@H](O)[C@H](O)COP(=O)(O)OP(=O)(O)OC[C@H]3O[C@@H](n4cnc5c(N)ncnc54)[C@H](O)[C@@H]3O)c2cc1C
Conditions: active center of the β[…]α[…] barrel; Glu18 near the si-face of the isoalloxazine ring, Asp109 near C2; non-covalently bound; varied: cofactor.

B1: MTHFR (methylenetetrahydrofolate reductase) (Thermus thermophilus HB8) (protein)
chain: MKIRDLLKARRGPLFSFEFFPPKDPEGEEALFRTLEELKAFRPAFVSITYGAMGSTRERSVAWAQRIQSLGLNPLAHLTVAGQSRKEVAEVLHRFVESGVENLLALRGDPPRGERVFRPHPEGFRYAAELVALIRERYGDRVSVGGAAYPEGHPESESLEADLRHFKAKVEAGLDFAITQLFFNNAHYFGFLERARRAGIGIPILPGIMPVTSYRQLRRFTEVCGASIPGPLLAKLERHQDDPKAVLEIGVEHAVRQVAELLEAGVEGVHFYTLNKSPATRMVLERLGLRPASGQP
Regarding B1, the Km (in general, the substrate concentration at which the rate is half of its maximum) was 180 ± 23 µM in “purified protein [1]”, 9.7 ± 2.1 µM in the series “purified protein [2]” and 5 µM in the series “purified protein [3]”.
